{
  "source": "patent US20240301385",
  "about": "“DNA MODIFYING ENZYMES AND ACTIVE FRAGMENTS AND VARIANTS THEREOF AND METHODS OF USE” (LIFEEDIT THERAPEUTICS, INC., published 2024)",
  "binders": {"B1": {"name": "SGN000929 sgRNA ; SGN000929 target (ssRNA ; dsDNA)", "RNA": "AUCUGGAGGGAACUUACAGCAUAUGGUCAUAGUUCCAUGAAAGCCAAAAGUGGCUUUGAUGUUUCUAUGAUAAGGGUUUCGGCCCGUGGCGUCGGGGAUCGCCUGCCCAUUCCGAUGGGCUUCUCCCCAUUUAUU", "DNA 1": "ATCTGGAGGGAACTTACAGCATATG", "DNA 2": "CATATGCTGTAAGTTCCCTCCAGAT"}, "B2": {"name": "SGN001101 sgRNA ; SGN001101 target (ssRNA ; dsDNA)", "RNA": "AUAUUUUCUUUAAUGGUGCCAGGCAGUCAUAGUUCCAUUAAAGCCAAAAGUGGCUUUGAUGUUUCUAUGAUAAGGGUUUCGACCCGUGGCGUCGGGGAUCGCCUGCCCAUUGAAAUGGGCUUCUCCCCAU", "DNA 1": "ATATTTTCTTTAATGGTGCCAGGCA", "DNA 2": "TGCCTGGCACCATTAAAGAAAATAT"}, "B3": {"name": "SGN000169 sgRNA ; SGN000169 target (ssRNA ; dsDNA)", "RNA": "CACAUCUCGAGCAAGACGUUGUCAUAGUUCCAUUAAAGCCAAAAGUGGCUUUGAUGUUUCUAUGAUAAGGGUUUCGACCCGUGGCGUCGGGGAUCGCCUGCCCAUUGAAAUGGGCUUCUCCCCAUUUAUU", "DNA 1": "CACATCTCGAGCAAGACGTT", "DNA 2": "AACGTCTTGCTCGAGATGTG"}},
  "data": [
    {"target": "T1, APG09980.1-L16-nAPG07433.1 (truncated deaminase) (synthetic)", "T1 chain": "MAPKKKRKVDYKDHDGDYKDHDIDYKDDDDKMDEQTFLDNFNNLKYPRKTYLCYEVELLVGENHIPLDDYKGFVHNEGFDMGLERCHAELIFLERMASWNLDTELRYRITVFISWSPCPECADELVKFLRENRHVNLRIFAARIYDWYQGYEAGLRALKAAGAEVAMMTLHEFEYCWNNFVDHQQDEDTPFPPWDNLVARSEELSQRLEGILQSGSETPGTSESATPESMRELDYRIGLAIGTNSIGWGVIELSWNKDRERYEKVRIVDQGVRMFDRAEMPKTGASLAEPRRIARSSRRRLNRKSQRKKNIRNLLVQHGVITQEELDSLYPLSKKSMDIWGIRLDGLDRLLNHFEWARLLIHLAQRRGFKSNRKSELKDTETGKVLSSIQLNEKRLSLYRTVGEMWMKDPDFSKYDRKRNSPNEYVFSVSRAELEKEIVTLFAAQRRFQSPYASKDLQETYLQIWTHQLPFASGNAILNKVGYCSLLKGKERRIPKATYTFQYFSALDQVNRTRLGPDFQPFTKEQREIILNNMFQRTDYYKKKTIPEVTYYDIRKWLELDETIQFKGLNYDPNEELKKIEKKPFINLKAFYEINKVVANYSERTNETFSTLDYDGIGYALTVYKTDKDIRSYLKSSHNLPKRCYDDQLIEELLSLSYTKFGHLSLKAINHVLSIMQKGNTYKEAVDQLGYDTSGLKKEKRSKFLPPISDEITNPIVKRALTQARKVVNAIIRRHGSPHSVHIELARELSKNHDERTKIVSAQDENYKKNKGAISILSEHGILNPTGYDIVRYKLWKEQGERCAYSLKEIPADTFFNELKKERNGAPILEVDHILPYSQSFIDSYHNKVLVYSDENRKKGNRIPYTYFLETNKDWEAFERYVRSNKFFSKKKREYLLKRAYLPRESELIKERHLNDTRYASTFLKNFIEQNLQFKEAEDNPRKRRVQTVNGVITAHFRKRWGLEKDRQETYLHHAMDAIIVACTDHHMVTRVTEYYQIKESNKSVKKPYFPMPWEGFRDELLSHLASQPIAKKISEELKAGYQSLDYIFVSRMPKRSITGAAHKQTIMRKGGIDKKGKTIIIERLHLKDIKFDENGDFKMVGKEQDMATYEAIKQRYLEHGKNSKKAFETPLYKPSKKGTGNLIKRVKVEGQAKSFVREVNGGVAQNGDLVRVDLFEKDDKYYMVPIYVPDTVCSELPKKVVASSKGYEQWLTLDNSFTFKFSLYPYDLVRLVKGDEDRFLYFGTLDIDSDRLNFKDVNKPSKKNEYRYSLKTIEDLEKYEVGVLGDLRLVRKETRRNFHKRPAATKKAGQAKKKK", "assay": "cell_activity; HEK293FT; PAM SEQ 152", "conditions": "tags: SV40 NLS, 3xFLAG N-term; nucleoplasmin NLS C-term", "procedure,_shortened": "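Editing read out by next-generation sequencing (MiSeq 2×250) of PCR amplicons spanning the target site, analysed for INDELs or % cytosine conversion per position (position 1 nearest PAM).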", "units": {"activity": "% mutated reads"}, "values": [
      {"binder": "B1", "activity": 25.9},
      {"binder": "B2", "activity": 30.5},
      {"binder": "B3", "activity": 24.1}
    ]}
  ]
}
